Molecular target: T1, rat GLP-1 receptor (CHO cells transfected with the rat GLP-1 receptor) (rat, UniProt P32301 22-463)
T1 sequence (looked up): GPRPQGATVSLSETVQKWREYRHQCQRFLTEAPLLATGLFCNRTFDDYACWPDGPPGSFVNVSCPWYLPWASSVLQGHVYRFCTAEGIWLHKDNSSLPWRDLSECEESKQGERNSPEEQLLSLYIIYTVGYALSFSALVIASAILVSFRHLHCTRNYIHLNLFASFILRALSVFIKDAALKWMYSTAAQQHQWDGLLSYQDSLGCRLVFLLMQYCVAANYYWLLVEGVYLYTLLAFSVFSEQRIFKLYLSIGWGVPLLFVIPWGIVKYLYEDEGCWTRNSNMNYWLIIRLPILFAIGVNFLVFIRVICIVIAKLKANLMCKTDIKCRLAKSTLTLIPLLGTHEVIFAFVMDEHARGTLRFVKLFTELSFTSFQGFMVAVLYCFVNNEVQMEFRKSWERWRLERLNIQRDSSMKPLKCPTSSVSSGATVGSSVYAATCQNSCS
Experiment: cell-based or functional assay

- cAMP assay EC50 (fermentation F0191): 5.9 nM
B1: pREX0558: GLP-1 (7-37;A8G;G22E;K34A) fused to the N-terminus of transferrin with PEAPTD and IgG hinge linkers (other)
chain: HGEGTFTSDVSSYLEEQAAKEFIAWLVAGRGPEAPTDVEPKSSDKTHTSPPSPAPELLGGPSVPDKTVRWCAVSEHEATKCQSFRDHMKSVIPSDGPSVACVKKASYLDCIRAIAANEADAVTLDAGLVYDAYLAPNNLKPVVAEFYGSKEDPQTFYYAVAVVKKDSGFQMNQLRGKKSCHTGLGRSAGWNIPIGLLYCDLPEPRKPLEKAVANFFSGSCAPCADGTDFPQLCQLCPGCGCSTLNQYFGYSGAFKCLKDGAGDVAFVKHSTIFENLANKADRDQYELLCLDNTRKPVDEYKDCHLAQVPSHTVVARSMGGKEDLIWELLNQAQEHFGKDKSKEFQLFSSPHGKDLLFKDSAHGFLKVPPRMDAKMYLGYEYVTAIRNLREGTCPEAPTDECKPVKWCALSHHERLKCDEWSVNSVGKIECVSAETTEDCIAKIMNGEADAMSLDGGFVYIAGKCGLVPVLAENYNKADNCEDTPEAGYFAVAVVKKSASDLTWDNLKGKKSCHTAVGRTAGWNIPMGLLYNKINHCRFDEFFSEGCAPGSKKDSSLCKLCMGSGLNLCEPNNKEGYYGYTGAFRCLVEKGDVAFVKHQTVPQNTGGKNPDPWAKNLNEKDYELLCLDGTRKPVEEYANCHLARAPNHAVVTRKDKEACVHKILRQQQHLFGSNVADCSGNFCLFRSETKDLLFRDDTVCLAKLHDRNTYEKYLGEEYVKAVGNLRKCSTSSLLEACTFRRP

From patent US20060205037A1 (published 2006)
